In patent US20240287172A1 (SCIRHOM, published 2024):
Where a chain is given by its changes, count along the chain named.

T1: hiR2-FL-R554A-T7 (human, UniProt Q6PJF5 1-856)
T1 sequence: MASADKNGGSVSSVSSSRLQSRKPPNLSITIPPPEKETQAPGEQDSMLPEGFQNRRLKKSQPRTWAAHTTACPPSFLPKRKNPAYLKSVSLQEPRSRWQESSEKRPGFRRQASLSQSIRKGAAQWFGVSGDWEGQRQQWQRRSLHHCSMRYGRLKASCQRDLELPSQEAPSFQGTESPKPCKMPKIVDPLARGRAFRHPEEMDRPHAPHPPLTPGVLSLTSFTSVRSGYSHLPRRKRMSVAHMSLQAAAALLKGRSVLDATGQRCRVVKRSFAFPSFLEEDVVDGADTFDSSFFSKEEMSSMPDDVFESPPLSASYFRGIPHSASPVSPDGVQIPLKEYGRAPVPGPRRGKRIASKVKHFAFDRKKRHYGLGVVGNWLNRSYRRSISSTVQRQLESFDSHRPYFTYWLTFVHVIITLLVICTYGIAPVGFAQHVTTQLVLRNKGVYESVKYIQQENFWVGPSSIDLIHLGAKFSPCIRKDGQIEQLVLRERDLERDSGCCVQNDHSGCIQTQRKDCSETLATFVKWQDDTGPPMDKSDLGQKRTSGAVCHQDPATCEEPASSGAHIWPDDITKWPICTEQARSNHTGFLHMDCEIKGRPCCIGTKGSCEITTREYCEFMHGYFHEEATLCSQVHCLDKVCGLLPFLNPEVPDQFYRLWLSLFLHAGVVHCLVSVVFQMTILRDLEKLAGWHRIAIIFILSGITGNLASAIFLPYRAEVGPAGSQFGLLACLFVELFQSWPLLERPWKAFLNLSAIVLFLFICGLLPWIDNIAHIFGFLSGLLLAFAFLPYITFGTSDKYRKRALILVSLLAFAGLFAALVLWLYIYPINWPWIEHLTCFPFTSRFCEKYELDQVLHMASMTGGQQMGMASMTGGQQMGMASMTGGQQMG

T2: hiR2-FL-G587A-T7 (human, UniProt Q6PJF5 1-856)
T2 sequence: T1 sequence with A554R, G587A

B1: antibody 5 (antibody, V domains shown)
VH: QVTLKESGPGILQPSQTLSLTCSFSGFSLSTFGMGVGWIRQPSGKGLEWLAHIWWDDEKYYNSALKSRLTISKATSKNQAFLKIANVDTADTATYYCARISNYGSNYWYFNVWGTGTTVTVSS
VL: QVVLTQSPALMSASPGEKVTMTCSAGSSVSCMYWYQQKPGSSPRVLIYDTSNLASGVPARFTGSGSGTSYSLTISRMEAEDAASYYCQQWNSYPLTFGAGTKLELK
notes: mouse IgG, kappa light chain; also called clone #5; purified antibody 5
B2: antibody 44 (antibody, V domains shown)
VH: B1 VH with G44E, E58D, S63P, A74D, A80I, A85T, D91E, A98S, S101G, N111D
VL: QIVLTQSPAVMSASPGEKVTMTCTASSSVYYMYWYQQTPGSSPRLLIYDTSNLASGVPVRFSGSGSGTSYSLTISRMEAEDAATYYCQQWNTYPLTFGAGTKLELK
notes: mouse IgG, kappa light chain; also called clone #44; purified antibody 44
B3: antibody 43 (antibody, V domains shown)
VH: B1 VH with T3A, P42S, H52N, E58D, S63P, A74D, T75A, S101G, N111D
VL: QIVLTQSPAIMSASPGERVTMTCSANSRISYMYWYQQKPGSSPRLLIYDTSNLASGVPVRFSGSGSGTSYSLTISRMEAEDAATYNCQQWSSYPLTFGAGTKLELK
notes: mouse IgG, kappa light chain; also called clone #43; purified antibody 43
B4: antibody 22 (antibody, V domains shown)
VH: B1 VH with A80V
VL: B1 VL with C31Y, S84T
notes: mouse IgG, kappa light chain; also called clone #22; purified antibody 22
B5: antibody 48 (antibody, V domains shown)
VH: QVQLQQSGTELVRPGTSVKVSCKASGYAFTNYLIEWVKQRPGQGLEWIGVINPGSGFTKYNEKFKGKATLTADKSSSTVYMHLSSLTSEDSAVYFCARGLYRAMDYWGQGTSVTVSS
VL: DIQMTQSPASQSASLGESVTITCLASQTIATWLAWYQQKPGKSPQLLIYGATTLADGVPSRFSGGGSGTKFSFKISSLQAEDFVSYYCQQLYSTPYTFGGGTKLEIK
notes: mouse IgG, kappa light chain; also called clone #48; purified antibody 48
B6: antibody 50 (antibody, V domains shown)
VH: B5 VH with T9A, T16A, T30S, V79A, H82Q
VL: B5 VL with A30G, G50A, T52A, T53S, S85N, L91I
notes: mouse IgG, kappa light chain; also called clone #50; purified antibody 50

How the values were obtained:
hiR2-FL-R554A-T7 = target: T1, hiR2-FL-R554A-T7; test: FACS on MEF-DKO cells expressing the variant, 3 µg/ml antibody
Method in brief: (§1)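 Two incubations on ice, each 1 hour: test antibody (3 μg/ml) or FACS buffer only, then PE anti-mouse F(ab′)2 at 1:100 in the dark. Centrifugation and washes used 4° C; staining quantified on a flow cytometer.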

hiR2-FL-G587A-T7 = target: T2, hiR2-FL-G587A-T7; test: as above
Method in brief: as §1

Binder	loss of binding vs wild type (hiR2-FL-R554A-T7) [%]	loss of binding vs wild type (hiR2-FL-G587A-T7) [%]
B1	≥ 60	–
B2	≥ 60	≥ 30
B3	≥ 30	≥ 30
B4	≥ 30	–
B5	≥ 30	≥ 30
B6	–	≥ 60
